# B1: ErbB4 Kinase, intracellular domain (ICD) (protein)
# chain: RRKSIKKKRALRRFLETELVEPLTPSGTAPNQAQLRILKETELKRVKVLGSGAFGTVYKGIWVPEGETVKIPVAIKILNETTGPKANVEFMDEALIMASMDHPHLVRLLGVCLSPTIQLVTQLMPHGCLLEYVHEHKDNIGSQLLLNWCVQIAKGMMYLEERRLVHRDLAARNVLVKSPNHVKITDFGLARLLEGDEKEYNADGGKMPIKWMALECIHYRKFTHQSDVWSYGVTIWELMTFGGKPYDGIPTREIPDLLEKGERLPQPPICTIDVYMVMVKCWMIDADSRPKFKELAAEFSRMARDPQRYLVIQGDDRMKLPSPNDSKFFQNLLDEEDLEDMMDAEEYLVPQAFNIPPPIYTSRARIDSNRSEIGHSPPPAYTPMSGNQFVYRDGGFAAEQGVSVPYRAPTSTIPEAPVAQGATAEIFDDSCCNGTLRKPVAPHVQEDSSTQRYSADPTVFAPERSPRGELDEEGYMTPMRDKPKQEYLNPVEENPFVSRRKNGDLQALDNPEYHNASNGPPKAEDEYVNEPLYLNTFANTLGKAEYLKNNILSMPEKAKKAFDNPDYWNHSLPPRSTLQHPDYLQEYSTKYFYKQNGRIRPIVAENPEYLSEFSLKPGTVLPPPPYRHRNTVV
# B2: IGF-1 Receptor Kinase, intracellular domain (ICD) (protein)
# chain: RKRNNSRLGNGVLYASVNPEYFSAADVYVPDEWEVAREKITMSRELGQGSFGMVYEGVAKGVVKDEPETRVAIKTVNEAASMRERIEFLNEASVMKEFNCHHVVRLLGVVSQGQPTLVIMELMTRGDLKSYLRSLRPEMENNPVLAPPSLSKMIQMAGEIADGMAYLNANKFVHRDLAARNCMVAEDFTVKIGDFGMTRDIYETDYYRKGGKGLLPVRWMSPESLKDGVFTTYSDVWSFGVVLWEIATLAEQPYQGLSNEQVLRFVMEGGLLDKPDNCPDMLFELMRMCWQYNPKMRPSFLEIISSIKEEMEPGFREVSFYYSEENKLPEPEELDLEPENMESVPLDPSASSSSLPLPDRHSGHKAENGPGPGVLVLRASFDERQPYAHMNGGRKNERALPLPQSSTC
# B3: VEGF Receptor 1 Kinase, intracellular domain (ICD) (protein)
# chain: RKMKRSSSEIKTDYLSIIMDPDEVPLDEQCERLPYDASKWEFARERLKLGKSLGRGAFGKVVQASAFGIKKSPTCRTVAVKMLKEGATASEYKALMTELKILTHIGHHLNVVNLLGACTKQGGPLMVIVEYCKYGNLSNYLKSKRDLFFLNKDAALHMEPKKEKMEPGLEQGKKPRLDSVTSSESFASSGFQEDKSLSDVEEEEDSDGFYKEPITMEDLISYSFQVARGMEFLSSRKCIHRDLAARNILLSENNVVKICDFGLARDIYKNPDYVRKGDTRLPLKWMAPESIFDKIYSTKSDVWSYGVLLWEIFSLGGSPYPGVQMDEDFCSRLREGMRMRAPEYSTPEIYQIMLDCWHRDPKERPRFAELVEKLGDLLQANVQQDGKDYIPINAILTGNSGFTYSTPAFSEDFFKESISAPKFNSGSSDDVRYVNAFKFMSLERIKTFEELLPNATSMFDDYQGDSSTLLASPMLKRFTWTDSKPKASLKIDLRVTSKSKESGLSDVSRPSFCHSSCGHVSEGKRRFTYDHAELERKIACCSPPPDYNSVVLYSTPPI
# B4: PDGF Receptor β Kinase, intracellular domain (ICD) (protein)
# chain: RYEIRWKVIESVSSDGHEYIYVDPMQLPYDSTWELPRDQLVLGRTLGSGAFGQVVEATAHGLSHSQATMKVAVKMLKSTARSSEKQALMSELKIMSHLGPHLNVVNLLGACTKGGPIYIITEYCRYGDLVDYLHRNKHTFLQHHSDKRRPPSAELYSNALPVGLPLPSHVSLTGESDGGYMDMSKDESVDYVPMLDMKGDVKYADIESSNYMAPYDNYVPSAPERTCRATLINESPVLSYMDLVGFSYQVANGMEFLASKNCVHRDLAARNVLICEGKLVKICDFGLARDIMRDSNYISKGSTFLPLKWMAPESIFNSLYTTLSDVWSFGILLWEIFTLGGTPYPELPMNEQFYNAIKRGYRMAQPAHASDEIYEIMQKCWEEKFEIRPPFSQLVLLLERLLGEGYKKKYQQVDEEFLRSDHPAILRSQARLPGFHGLRSPLDTSSVLYTAVQPNEGDNDYIIPLPDPKPEVADEGPLEGSPSLASSTLNEVNTSSTISCDSPLEPQDEPEPEPQLELQVEPEPELEQLPDSGCPAPRAEAEDSFL
# Biological target: GST-poly (Glu, Tyr) fusion protein
# Sequence (chain, as listed by the source): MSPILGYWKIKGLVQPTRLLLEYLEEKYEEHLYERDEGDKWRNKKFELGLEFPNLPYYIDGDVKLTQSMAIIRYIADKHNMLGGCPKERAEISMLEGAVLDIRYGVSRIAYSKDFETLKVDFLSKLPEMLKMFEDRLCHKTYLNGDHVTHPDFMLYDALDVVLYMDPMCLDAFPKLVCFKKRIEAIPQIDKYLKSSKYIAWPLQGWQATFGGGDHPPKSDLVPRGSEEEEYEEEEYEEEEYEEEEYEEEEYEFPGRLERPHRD
Protein,"phosphorylation of the substrate with ATP, Western blotting with Anti-Phosphotyrosine clone 4G10","phosphorylation of the plate-bound substrate, ELISA with HRP-labeled p-Tyr (PY20) antibody, absorbance (650 nm)"
B1,"In +of all of (i to vii) in FIG. 1, a single band was observed at a position where the phosphorylated GST-poly (Glu, Tyr) fusion protein appears",–
B2,"In +of all of (i to vii) in FIG. 1, a single band was observed at a position where the phosphorylated GST-poly (Glu, Tyr) fusion protein appears","In either case of HER1 and IGF1R, as the tyrosine kinase amount increased, a measured value was increased"
B3,"In +of all of (i to vii) in FIG. 1, a single band was observed at a position where the phosphorylated GST-poly (Glu, Tyr) fusion protein appears",–
B4,"In +of all of (i to vii) in FIG. 1, a single band was observed at a position where the phosphorylated GST-poly (Glu, Tyr) fusion protein appears",–
